Target: Fluorescein-labeled CD4 tail peptide (residue 403-419)
Assay: other fluorescence titration; 1.0 uM fluorescein-labeled CD4 tail peptide in PBS, stirred cuvette, 25 C, 30 min incubation with Nef-His proteins at 0.01 to 10 uM in 0.5 ml; quenching of emission (excitation 492 nm, emission 516 nm) as percent reduction, average of three measurements

| Substance | percent quench of the peptide's fluorescence at 10 uM Nef-His [%] |
| --- | --- |
| Nef (C55/A)-His, untreated (natural protein) | 10.6 |
| Nef (wt)-His, unmodified (natural protein) | 11.6 |
| TPCK-modified Nef-His (natural protein) | 4.9 |
| TPCK-treated Nef (C55/A)-His (natural protein) | 9.8 |

Reference: PMC2917394
